Data taken from patent US20200179510A1, “LOW DENSITY LIPOPROTEIN RECEPTOR RELATED PROTEIN 5 INHIBITION SUPPRESSES TUMOR FORMATION” (YALE UNIVERSITY, priority 2017, published 2020).

Tests used:
[1] = system: Wnt reporter gene TOPFlash; assay: Wnt reporter gene (TOPFlash) assay in HEK293 cells; format: cell-based
Method: The Stat5 reporter assays were done in HEK293T cells for activated JAK1-induced activity or in those stably expressing JAK3, IL2/15Rβ and the common receptor γ subunit for IL15 induced activity. Cells were seeded at 8×10^4 cells per well in 48 well plate. The next day, cells were transfected by Lipofectamine 2000 (Invitrogen) with the pGL4.52-STAT5-Luciferase (Promega) and tagRFP (internal control) plasmids together with other plasmids expressing genes of interest. The total amount of plasmid was kept at 125 ng per well. The cells were added 24 hours after transfection with IL15/IL15Rα-Fc complex or mock. Six hours later, the cells were lysed and subjected to RFP fluorescence and luciferase luminescence measurement using an Envision Multilabel plate reader. The reporter gene activity is shown after being normalized against RFP readings. The LEF reporter assay was carried out in HEK293 cells that were transfected with the TOPFlash and GFP plasmids. The rest is the same as above. The reporter gene activity is shown after being normalized against GFP readings.
A functional mouse monoclonal anti-DKK2 antibody (5F8) was developed to specifically target and neutralize DKK2, but to not cross react with DKK-1. […]

[2] = system: tumor infiltrated leukocytes (CD8+ and NK1.1+ cells); assay: Flow cytometry of tumor infiltrated leukocytes, MC38 tumors; format: in vivo, mouse; settings: MC38, intratumoral DKK2 protein 600 ng/25 μl/tumor, three times every 8 hours
Method: Tumors were minced using scissors and scalpel blades and incubated with a digestion buffer [RPMI1640, 5% FBS, 1% PS, 25 mM HEPES and 300 U collagenase (Sigma C0130)] in a shaker for 2 h at 37° C. Disperse cells were filtered through a 70 μm cell strainer to eliminate clumps and debris. After centrifugation for 5 minutes (500×g) at 4° C., cell pellets were resuspended in the Red Blood Cell Lysis Buffer (Sigma R7757) and incubated at RT for 5 min to remove erythrocytes. Cells were pelleted again, resuspended and incubated in 0.05% Trypsin/EDTA at 37° C. for 5 min, followed by DNA digestion with the addition of Type I DNase (1 μg/ml final, Sigma D4263) for 5 min. Trypsin digestion was stopped by the addition of FBS to 5%, and cells were filtered again by a 40 μm cell strainer. Finally, the cells were pelleted again and resuspended in PBS at a concentration of […].
Cells in single cell suspension were fixed with 2% PFA (Santa-Cruz sc-281692). After washing with a Flow Cytometry Staining Buffer (eBioscience 00-4222-26), cells were stained with antibodies for cell surface markers for 1 hour on ice in the dark. For staining of intracellular proteins, the cells were washed and resuspended in the Permeabilization Buffer (BD 554723) and stained by antibodies in the Permeabilization Buffer for 1 hour on ice in the dark. […]

[3] = system: primary mouse NK cells with MC38 or YUMM1.7 cells; assay: NK and tumor cell co-culture; format: cell-based; settings: NK cells pre-treated with DKK2 8 nM 24 hrs, MC38 7:1
Method: Primary NK cells were isolated from the spleens as described above and cultured in the presence of 50 ng/ml recombinant murine IL-15 for 24 hours. Meanwhile, tumor cells were plated in the 96 well plate for overnight. NK cells were added into the tumor cells at 7:1 radio in the presence of the IgG3 antibody or anti-DKK2 5F8 for 9 hours at 37° C. For testing the effect of DKK2 in co-culture, isolated NK cells were cultured in the presence of 50 ng/ml recombinant murine IL-15 for 24 hours and then cultured in the presence or absence of DKK2 for another 24 hours before the NK cells were added to pre-seeded MC38 cells at 7:1 (NK:MC38) radio. The numbers of live tumor cells were determined by a Guava flow cytometer (EMDmillipore), whereas the cell apoptosis was assessed by flow cytometry using an Annexin V apoptosis detection kit (eBioscience, 88-8007).

primary mouse NK cells = assay: IL-15-cultured primary mouse NK cells (flow cytometry, Western); format: cell-based
Method: Cells in single cell suspension were fixed with 2% PFA (Santa-Cruz sc-281692). After washing with a Flow Cytometry Staining Buffer (eBioscience 00-4222-26), cells were stained with antibodies for cell surface markers for 1 hour on ice in the dark. For staining of intracellular proteins, the cells were washed and resuspended in the Permeabilization Buffer (BD 554723) and stained by antibodies in the Permeabilization Buffer for 1 hour on ice in the dark. The cells were then pelleted and resuspended in the Flow Cytometry Staining Buffer for flow cytometry analysis.
Mouse primary NK and CD8+ T cells were isolated from the spleens by using the NK cell and CD8+ T cell isolation kits according to the manufacturer's instructions (Miltenyi Biotec #130-090-864 and #130-104-075), respectively. Primary NK cells were cultured in RPMI-1640 (Gibco, 11875-093) supplemented with 10% FBS, penicillin (100 U/ml), streptomycin (100 μg/ml), 2-mercaptoethanol (500 μM) and HEPES (10 mM) at 37° C. supplemented with 5% CO2 in the presence of recombinant murine IL-15 (50 ng/ml) for 24 hours before treatment with DKK2, CHIR99021, or WNT3A. CD8+ T cells were cultured in the same culture medium and condition as NK cells, but supplemented with IL-15 (200 ng/ml) and IL-15 Rα (1 μg/ml recombinant Mouse IL-15 receptor alpha Fc chimera Protein from R&D) for 96 hours before DKK2 treatment. Mouse primary intraepithelial lymphocytes (IELs) were prepared as described in (Little et al., The Journal of Immunology 175, 6713-6722 (2005) and Li et al. Infect Immun 80, 565-574 (2012)). In brief, the small intestine was everted, divided into four pieces, and washed twice in phosphate-buffered saline (PBS) containing 100 U/ml penicillin/streptomycin The specimens were then incubated with stirring at 37° C. in prewarmed Ca2+ and Mg2+-free Hanks' solution containing 100 U/ml penicillin-streptomycin, 5% fetal calf serum (FCS), 2 mM dithiothreitol (DTT), and 5 mM EDTA for 30 min, followed by vigorous shaking for 30 s. The supernatants were passed over two nylon wool columns to remove undigested tissue debris. The lymphocytes obtained were pooled and enriched on a discontinuous (40% and 70%) Percoll density gradient. Cells at the interface between the 40% and […], fractions (IELs) were collected for treatment with IL-15 (200 ng/ml) and DKK2 (200 ng/ml), followed by flow analysis.

human NK cells = assay: Human NK cells cultured with IL-15; format: cell-based; settings: human IL-15 50 ng/ml, 10 nM human DKK2, 24 hour
Method: Peripheral blood mononuclear cells from normal humans were purchased from ZenBio (SER-PBMC-200). Human NK cells were isolated from the PBMCs by using the human NK cell isolation kit according to the manufacturer's instruction (Miltenyi Biotec #130-092-657). Human NK cells were cultured in RPMI-1640 (Gibco, 11875-093) supplemented with 10% heat-inactivated FBS, penicillin (100 U/ml), streptomycin (100 μg/ml), 2-mercaptoethanol (500 μM) and HEPES (10 mM) at 37° C. supplemented with 5% CO2 in the presence of recombinant human IL-15 (50 ng/ml) before treatment with recombinant human DKK2 protein.

[4] = system: mouse primary CD8+ T cells; assay: Mouse primary CD8+ T cells; format: cell-based
Method: (§1) Mouse primary NK and CD8+ T cells were isolated from the spleens by using the NK cell and CD8+ T cell isolation kits according to the manufacturer's instructions (Miltenyi Biotec #130-090-864 and #130-104-075), respectively. Primary NK cells were cultured in RPMI-1640 (Gibco, 11875-093) supplemented with 10% FBS, penicillin (100 U/ml), streptomycin (100 μg/ml), 2-mercaptoethanol (500 μM) and HEPES (10 mM) at 37° C. supplemented with 5% CO2 in the presence of recombinant murine IL-15 (50 ng/ml) for 24 hours before treatment with DKK2, CHIR99021, or WNT3A. CD8+ T cells were cultured in the same culture medium and condition as NK cells, but supplemented with IL-15 (200 ng/ml) and IL-15 Rα (1 μg/ml recombinant Mouse IL-15 receptor alpha Fc chimera Protein from R&D) for 96 hours before DKK2 treatment. Mouse primary intraepithelial lymphocytes (IELs) were prepared as described in (Little et al., The Journal of Immunology 175, 6713-6722 (2005) and Li et al. Infect Immun 80, 565-574 (2012)). […]

[5] = system: CD8+ intraepithelial cells from intestines; assay: Mouse primary intraepithelial lymphocytes; format: cell-based; settings: IL-15, 10 nM DKK2, 24 hour
Method: as §1

[6] = system: phospho-STAT5 nuclear localization; assay: Immunocytostaining of phospho-STAT5 localization in NK cells; format: cell-based, mouse
Method: They were then placed on poly-lysine coated coverslips and incubated for 30 min at room temperature. Cells were fixed with 4% PFA for 10 min at room temperature and permeabilized with ice-cold methanol for 10 min at −20° C. After rinsed with PBS for 3 times, cells were blocked with a blocking buffer (5% normal donkey serum and 0.5% triton in PBS) for 1 hr at room temperature. Primary antibodies were then diluted in PBS with 0.5% BSA and applied to cells with overnight incubation at 4° C. Cells were rinsed with PBS for 3 times and incubated with diluted fluorochrome-conjugated secondary antibodies (in PBS with 1% BSA) for 1 hr at room temperature. Finally, cells were rinsed with PBS for 3 times and mounted with Prolong Gold Antifade solution (Thermo Fisher) for confocal microscopy.

LRP5 = molecular target: T1, LRP5 (Homo sapiens, UniProt O75197); assay: LRP internalization assay, LRP5; format: cell-based; settings: HEK293 cells, DKK2 4 nM
T1 construct: endogenous in cells; host or cells: HEK293
Method: (§2) HEK293 cells were treated with mock or recombinant mouse DKK2 protein (4 nM) in culture medium for duration indicated. The cells were washed with pre-cold PBS and cell surface proteins were biotinylated with 0.5 mg/ml of EZ-Link Sulfo-NHS-SS-Biotin (Thermo Fisher, 21445) in a PBS buffer on ice for 30 min. The reaction was stopped by addition of PBS containing ice-cold 50 mM NH4Cl, followed by repeated washes with ice-cold PBS. The cells were then lysed with in a buffer containing 1.25% Triton X-100, 0.25% SDS, 50 mM Tris HCl PH8.0, 150 mM NaCl, 5 mM EDTA, 5 mg/ml iodoacetamide, 10 ug/ml PMSF, and the Roche proteinase inhibitor cocktail. After centrifugation, aliquots were taken as lysate controls, and the rest of supernatants were used in pull-down with NeutrAvidin beads (Thermo Fisher, 29200), followed by analysis by Western blotting.

LRP6 = molecular target: T2, LRP6 (Homo sapiens, UniProt O75581); assay: LRP internalization assay, LRP6; format: cell-based; settings: HEK293 cells, DKK2 4 nM
T2 construct: endogenous in cells; host or cells: HEK293
Method: as §2

T1 sequence (O75197 32-1615): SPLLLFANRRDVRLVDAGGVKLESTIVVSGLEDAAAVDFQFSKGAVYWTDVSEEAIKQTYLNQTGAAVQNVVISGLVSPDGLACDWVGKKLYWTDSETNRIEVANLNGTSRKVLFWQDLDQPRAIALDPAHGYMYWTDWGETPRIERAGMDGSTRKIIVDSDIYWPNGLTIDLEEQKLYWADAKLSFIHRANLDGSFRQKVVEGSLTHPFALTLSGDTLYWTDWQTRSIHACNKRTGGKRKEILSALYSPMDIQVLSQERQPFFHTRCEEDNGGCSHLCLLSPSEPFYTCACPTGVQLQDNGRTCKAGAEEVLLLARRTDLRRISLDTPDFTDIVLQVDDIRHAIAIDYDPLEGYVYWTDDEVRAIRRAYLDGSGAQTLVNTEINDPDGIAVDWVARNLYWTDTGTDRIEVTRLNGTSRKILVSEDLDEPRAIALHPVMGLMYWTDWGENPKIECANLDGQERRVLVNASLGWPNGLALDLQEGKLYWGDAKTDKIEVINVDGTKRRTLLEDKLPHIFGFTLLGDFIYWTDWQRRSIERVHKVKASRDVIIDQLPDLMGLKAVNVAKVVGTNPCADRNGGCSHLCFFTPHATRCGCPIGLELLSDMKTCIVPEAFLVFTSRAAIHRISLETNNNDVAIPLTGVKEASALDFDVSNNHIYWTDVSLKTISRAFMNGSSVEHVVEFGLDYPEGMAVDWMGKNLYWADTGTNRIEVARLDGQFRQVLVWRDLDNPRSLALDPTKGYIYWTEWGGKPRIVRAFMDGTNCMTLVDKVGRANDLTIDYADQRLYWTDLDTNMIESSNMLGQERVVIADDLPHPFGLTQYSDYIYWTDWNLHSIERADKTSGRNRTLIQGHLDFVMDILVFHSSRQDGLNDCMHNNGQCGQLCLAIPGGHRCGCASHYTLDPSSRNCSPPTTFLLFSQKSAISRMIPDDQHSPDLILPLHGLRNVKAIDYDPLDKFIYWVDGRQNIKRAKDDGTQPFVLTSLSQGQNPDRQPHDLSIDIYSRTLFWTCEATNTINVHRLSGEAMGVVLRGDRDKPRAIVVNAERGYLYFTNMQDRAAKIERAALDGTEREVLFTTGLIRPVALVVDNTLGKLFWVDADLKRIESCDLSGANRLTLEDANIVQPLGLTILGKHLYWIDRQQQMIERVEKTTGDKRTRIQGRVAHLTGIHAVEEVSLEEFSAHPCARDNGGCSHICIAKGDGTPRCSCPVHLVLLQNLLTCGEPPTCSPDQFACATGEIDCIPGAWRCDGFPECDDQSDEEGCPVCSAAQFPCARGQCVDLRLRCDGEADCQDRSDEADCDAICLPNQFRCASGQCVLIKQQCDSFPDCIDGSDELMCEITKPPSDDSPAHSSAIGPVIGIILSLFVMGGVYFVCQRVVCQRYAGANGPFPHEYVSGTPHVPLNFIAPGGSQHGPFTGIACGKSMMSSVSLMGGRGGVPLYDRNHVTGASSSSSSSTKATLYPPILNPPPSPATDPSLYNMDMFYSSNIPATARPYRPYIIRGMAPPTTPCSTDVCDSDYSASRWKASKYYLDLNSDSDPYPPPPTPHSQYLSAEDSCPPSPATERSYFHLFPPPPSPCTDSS
T2 sequence (O75581 20-1613): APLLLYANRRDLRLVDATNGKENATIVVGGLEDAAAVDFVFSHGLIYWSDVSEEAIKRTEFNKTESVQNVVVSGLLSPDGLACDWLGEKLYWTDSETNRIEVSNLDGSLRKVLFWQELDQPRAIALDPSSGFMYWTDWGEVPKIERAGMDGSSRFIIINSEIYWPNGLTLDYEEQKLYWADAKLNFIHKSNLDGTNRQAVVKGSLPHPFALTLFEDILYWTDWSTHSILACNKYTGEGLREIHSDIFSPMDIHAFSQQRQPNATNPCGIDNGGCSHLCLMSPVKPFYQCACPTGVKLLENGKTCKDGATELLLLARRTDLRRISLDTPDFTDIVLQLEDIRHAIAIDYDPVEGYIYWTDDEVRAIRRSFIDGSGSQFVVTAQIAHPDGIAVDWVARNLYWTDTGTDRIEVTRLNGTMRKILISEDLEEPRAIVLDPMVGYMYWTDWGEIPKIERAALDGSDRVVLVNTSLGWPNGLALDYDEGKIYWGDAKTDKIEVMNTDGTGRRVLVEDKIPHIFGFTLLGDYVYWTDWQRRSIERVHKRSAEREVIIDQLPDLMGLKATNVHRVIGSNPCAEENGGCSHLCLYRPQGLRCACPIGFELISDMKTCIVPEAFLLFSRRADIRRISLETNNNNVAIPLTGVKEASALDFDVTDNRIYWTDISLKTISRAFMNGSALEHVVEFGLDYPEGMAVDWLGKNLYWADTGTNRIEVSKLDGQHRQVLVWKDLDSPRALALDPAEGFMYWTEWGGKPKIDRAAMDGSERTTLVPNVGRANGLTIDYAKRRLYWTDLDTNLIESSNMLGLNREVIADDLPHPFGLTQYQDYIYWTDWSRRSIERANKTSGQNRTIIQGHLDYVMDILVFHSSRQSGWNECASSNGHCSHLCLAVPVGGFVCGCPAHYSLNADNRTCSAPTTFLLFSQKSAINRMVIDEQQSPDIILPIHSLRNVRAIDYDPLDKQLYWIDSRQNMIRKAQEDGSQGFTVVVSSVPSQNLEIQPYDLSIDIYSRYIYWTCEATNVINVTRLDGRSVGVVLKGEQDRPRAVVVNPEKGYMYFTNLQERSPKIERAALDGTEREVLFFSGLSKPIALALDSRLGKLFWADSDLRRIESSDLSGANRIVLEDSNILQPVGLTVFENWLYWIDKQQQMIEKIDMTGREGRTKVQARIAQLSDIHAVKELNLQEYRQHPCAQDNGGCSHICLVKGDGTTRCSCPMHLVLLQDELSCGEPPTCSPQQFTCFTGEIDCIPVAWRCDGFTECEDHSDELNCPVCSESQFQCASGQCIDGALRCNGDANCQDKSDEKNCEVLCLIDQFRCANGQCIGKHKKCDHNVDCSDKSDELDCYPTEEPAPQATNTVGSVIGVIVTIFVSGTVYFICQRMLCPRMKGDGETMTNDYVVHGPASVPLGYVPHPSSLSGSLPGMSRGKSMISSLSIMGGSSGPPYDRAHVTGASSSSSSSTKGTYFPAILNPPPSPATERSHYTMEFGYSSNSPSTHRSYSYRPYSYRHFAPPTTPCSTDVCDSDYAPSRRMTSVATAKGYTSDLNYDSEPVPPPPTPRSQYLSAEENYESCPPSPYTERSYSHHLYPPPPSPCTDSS

B1: DKK2: Recombinant Dickkopf 2 protein (mouse; human for human NK cells), also used as conditioned medium (protein)
chain: KLNSIKSSLGGETPAQSANRSAGMNQGLAFGGSKKGKSLGQAYPCSSDKECEVGRYCHSPHQGSSACMLCRRKKKRCHRDGMCCPGTRCNNGICIPVTESILTPHIPALDGTRHRDRNHGHYSNHDLGWQNLGRPHSKMPHIKGHEGDPCLRSSDCIDGFCCARHFWTKICKPVLHQGEVCTKQRKKGSHGLEIFQRCDCAKGLSCKVWKDATYSSKARLHVCQKI
For B1, the “Wnt reporter gene activity” value ([1]; DKK2 5 nM, Wnt3a 2 nM, CHIR 1 μM, 6 hrs (FIG. 10D)) was “inhibited”, the Wnt reporter activity ([1]; HEK293, TOPFlash, conditioned medium (FIG. 1E)) was “inhibited Wnt signaling” and the “tumor immune responses elicited by PD-1 blockade” value [2] was “inhibited PD-1 blockade-induced increases in the numbers of tumor-infiltrated CD45+ and CD8+ cells and activation of CD8+ and NK cells”. For the same molecule, the “ability of pre-treated NK cells to cause tumor cell apoptosis and death” value [3] was “reduced ability to cause tumor cell apoptosis and death”, the “granzyme B (Western)” value (primary mouse NK cells; DKK2-treated samples) was “reduced granzyme B” and the “perforin (Western)” value (primary mouse NK cells; DKK2-treated samples) was “reduced perforin”. For the same molecule, the “phosphorylated STAT5, ERK and AKT stimulated by IL-15” value (primary mouse NK cells; DKK2 treatment, Western) was “No notable changes in phosphorylated STAT5, ERK, and AKT”, the “dose dependence of inhibition of NK cell activation” value (primary mouse NK cells; FIG. 4F) was “dose-dependent” and the “granzyme B and NK activation markers” value (primary mouse NK cells; IL-15 50 ng/ml 24 hrs, then DKK2 8 nM 24 hours) was “significant reductions in granzyme B as well as a number of other NK activation markers, including CD69, IFNY, CD107a, and CD314”. The “activation of LRP5-deficient NK cells” value (primary mouse NK cells; LRP5-/- NK cells) was “failed to inhibit”, the “activation of primary NK cells lacking LRP6” value (primary mouse NK cells; Lrp6-/- NK cells) was “could still inhibit the activation” and the “granzyme B expression in human NK cells” value (human NK cells) was “inhibit granzyme B expression in human NK cells”. The “T cell receptor-mediated activation of primary T cells” value [4] was “does not inhibit T cell receptor-mediated activation”, the “IL-15-mediated activation of mouse primary CD8+ T cells” value ([4]; IL-15+IL15Rα-Fc 4 days, DKK2 10 nM 24 hours) was “directly suppresses mouse primary CD8+” and the “activation of CD8+ intraepithelial cells” value [5] was “directly suppresses”. The “co-localization of phospho-STAT5 with EEA1” value ([6]; DKK2-treated NK cells) was “partially co-localized with early endosome marker”, the “localization of phospho-STAT5 in NK cells” value ([6]; IL-15, DKK2-treated primary NK cells) was “cytosolic localization of phospho-STAT5 was readily detected” and the “phospho-STAT5 nuclear localization in NK cells lacking LRP5” value ([6]; LRP5-/- NK cells) was “failed to cause impairment of phospho-STAT5 nuclear localization”. The “internalization of LRP5” value (LRP5) was “induces internalization of LRP5” and the “internalization of LRP6” value (LRP6) was “not LRP6”.
